The values that follow come from patent US20230365705A1 (DYNAMICURE BIOTECHNOLOGY, published 2023).

For orientation: Kd means the equilibrium constant for the complex coming apart. By koff is commonly meant a measure of how fast the partners let go of each other. What is called kon is a measure of how fast the partners come together. By IC50 is commonly meant the concentration that inhibits the measured activity by half. Low values mean higher potency, high ones lower potency. As usually defined, the EC50 is the concentration at which the effect is half-maximal. High values mean lower potency in that assay, low ones higher potency in that assay.

Assay [1] addresses T1, Human CD93 recombinant protein (Sino Biological Inc, Catalog #12589-H08H) (human, UniProt Q9NPY3 22-580).
T1 construct: Biotinylated (EZ-LINK NHS-PEG4 biotin) in the BLI assays; also called hCD93; His-tagged human CD93
T1 sequence (looked up): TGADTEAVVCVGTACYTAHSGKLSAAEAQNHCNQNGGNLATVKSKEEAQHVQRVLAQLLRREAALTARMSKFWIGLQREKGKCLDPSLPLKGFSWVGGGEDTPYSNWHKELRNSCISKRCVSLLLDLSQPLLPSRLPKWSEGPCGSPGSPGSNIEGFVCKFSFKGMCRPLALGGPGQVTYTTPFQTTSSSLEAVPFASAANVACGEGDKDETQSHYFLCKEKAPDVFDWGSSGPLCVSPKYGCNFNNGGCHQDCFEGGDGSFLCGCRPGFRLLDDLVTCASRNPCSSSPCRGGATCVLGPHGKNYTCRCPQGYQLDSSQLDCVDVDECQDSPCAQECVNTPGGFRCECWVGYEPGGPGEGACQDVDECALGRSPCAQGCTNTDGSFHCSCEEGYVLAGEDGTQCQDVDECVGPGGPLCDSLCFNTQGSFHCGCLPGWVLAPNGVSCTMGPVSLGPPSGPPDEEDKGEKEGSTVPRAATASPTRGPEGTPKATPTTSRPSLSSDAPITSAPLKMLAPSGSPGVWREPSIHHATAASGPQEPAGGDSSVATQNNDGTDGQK
The assay can be described thus: BLI (Octet QKe), biotinylated human CD93 on streptavidin biosensors. The method, then: (§1) The binding affinity of anti-CD93 antibodies was determined with bio-layer interferometry using Octet QKe (Fortebio). […] Human CD93 recombinant protein (Sino Biological Inc, Catalog #12589-H08H) was biotinylated using EZ-LINK NHS-PEG4 biotin (Thermo Fisher Scientific). Streptavidin biosensors (Fortebio) were used to load biotinylated CD93 protein (300 seconds in 5 μg/ml). Baseline was stabilized for 60 seconds in 1×kinetics buffer (Fortebio) before anti-CD93 antibodies, at a serial dilution, were allowed to associate for 300 seconds with captured protein. Then the sensors were dissociated in 1× kinetics buffer for 600 seconds. […] (FIG. 41).
For orientation: Biolayer interferometry detects binding as a change in optical thickness at a sensor tip.

In assay [2] the target is T2, Human CD93 on cells (human CD93 expressing CHO cells; HUVEC, U937 and KG1a cells) (human, UniProt Q9NPY3 22-652).
T2 construct: whole, on cells; also called hCD93 expressing CHO cells; hCD93 CHO cells
T2 sequence (looked up): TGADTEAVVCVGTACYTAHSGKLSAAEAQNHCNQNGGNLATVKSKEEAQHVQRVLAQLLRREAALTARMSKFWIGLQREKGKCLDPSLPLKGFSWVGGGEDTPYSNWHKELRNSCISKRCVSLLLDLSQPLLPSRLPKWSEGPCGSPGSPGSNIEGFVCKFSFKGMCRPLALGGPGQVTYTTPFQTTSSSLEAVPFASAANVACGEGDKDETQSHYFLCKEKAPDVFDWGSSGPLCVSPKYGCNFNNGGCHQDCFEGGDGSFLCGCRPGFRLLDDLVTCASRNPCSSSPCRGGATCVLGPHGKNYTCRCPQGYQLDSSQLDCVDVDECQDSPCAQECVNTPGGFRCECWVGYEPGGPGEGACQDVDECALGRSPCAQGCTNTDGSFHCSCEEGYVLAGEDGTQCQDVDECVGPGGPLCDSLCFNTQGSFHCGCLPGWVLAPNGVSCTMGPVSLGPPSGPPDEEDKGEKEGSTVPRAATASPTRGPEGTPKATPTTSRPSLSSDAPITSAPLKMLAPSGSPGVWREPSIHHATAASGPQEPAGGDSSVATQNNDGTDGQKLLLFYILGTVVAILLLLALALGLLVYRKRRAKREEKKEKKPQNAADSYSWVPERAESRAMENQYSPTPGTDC
The assay can be described thus: flow cytometry blocking assay, CHO-hCD93 cells; blocked ligand hMMRN2 495-674 at 0.1 ug/ml, APC anti-His. The method, then: Then the cells were incubated with hMMRN2₄₉₅₋₆₇₄ at 0.1 μg/ml. […] After washing with FACS buffer twice, the samples were analyzed, and data acquired in NovoCyte Flow. Recombinant his tagged hMMRN2₄₉₅₋₆₇₄ was produced internally in E. Coli following routine procedure.

Assay [3] has as its target T2, Human CD93 on cells (human CD93 …). The assay can be described thus: flow cytometry titration, CHO-hCD93 cells; antibody stored 4 weeks at 40 C. As for the experimental part: Human CD93 expressing CHO cells were detached by incubation with TrypLE reagents (Thermo Fisher), which preserves the integrity of CD93 on the cell surface. Then the cells were incubated with serial diluted anti-CD93 antibodies for 30 minutes in 4° C. After washing by FACS buffer, the cells were incubated with Alexa Fluor 647 conjugated anti-human IgG (Jackson ImmunoResearch) for 30 minutes at 4° C. After washing by FACS buffer twice, the samples were acquired in NovoCyte Flow Cytometer and analyzed by NovoExpress software.
In general terms: In flow cytometry, cells or beads pass a laser one at a time.

In assay [4] the target is T1, Human CD93 recombinant protein (Sino …). The experiment in a line: summary table, column Octet (hCD93); 4 weeks at 40 C. The method, then:
as §1
as §1, with “1× kinetics” for “1×kinetics”, “42).” for “41).”

Assay [5] concerns the target T2, Human CD93 on cells (human CD93 …). The assay can be described thus: flow cytometry blocking assay, HUVEC cells; blocked ligand hIGFBP7-His 0.1 ug/ml; blocking activity runs from about 46 to about 72 % of control. The method, then:
After washing with FACS buffer twice, the samples were analyzed and data acquired in NovoCyte Flow.

The target in assay [6] is T1, Human CD93 recombinant protein (Sino …). The assay can be described thus: BLI (Octet QKe), biotinylated human CD93 on streptavidin biosensors; antibody stored 2 weeks at 40 C. As for the experimental part: as §1

B1: h7F3 (humanized 7F3, VH3+VL3) (antibody, human IgG1, V domains shown)
VH: QVQLVQSGAEVKKPGASVKVSCKASGYTFTDYEMHWVRQAPGQGLEWMGGIDPETGDTAYNQNFKGRVTMTTDTSTSTAYMELRSLTSDDTAVYYCTNYGNLYYYAMDYWGQGTSVTVSS
VL: EIVLTQSPSSLSASVGDRVTITCRASSSVSSSYLHWYQQKPGKAPKLLIYSTSNLAFGVPSRFSGSGSGTSYTFTISSLQPEDIATYYCQQYSGYPLTFGSGTKLEIK
notes: also called humanized 7F3-hIgG1
Regarding B1, the Kd amounted to 0.472 nM in assay [1], 0.487 nM in assay [4] and 0.495 nM in assay [6]. Further, the figures for the koff in assay [1] and in assay [6] were 0.000321 s⁻¹ and 0.000356 s⁻¹, respectively. The kon came out at 681000 M⁻¹ s⁻¹ in assay [1] and 720000 M⁻¹ s⁻¹ in assay [6]. In addition, the IC50 in assay [2] was found to be 0.173 nM; in assay [5], 1 nM. The molecule further yielded an EC50 in assay [3] of 0.195 nM.

B2: h16E4 (humanized 16E4, VH4+VL6) (antibody, V domains shown)
VH: QVQLVQSGAEVKKPGASVKVSCKASGYTFTSYWMHWVRQAPGQGLEWMGEIDPSASYTYYNQKFKGRVTMTRDKSSSTVYMELSSLTSEDSAVYYCARSVYYGNKYFDVWGAGTTVTVSS
VL: DIQMTQSPSTLSASVGDRVTITCKASQSVDYAGDSYMNWYQQKPGKAPKLLIYAASNLESGVPSRFSGSGSGTEFTLTISSLQPDDFATYYCQQTNEDPRTFGGGTKLEIK
notes: Detected with anti-human IgG, so a human Fc
Consider B2, for which the Kd in assay [4] amounted to 0.112 nM.
